B1: antibody 16 (antibody, V domains shown)
VH: QVTLKESGPGILQPSQTLSLTCSFSGFSLSTFALGVGWIRQPSGRGLEWLAHIWWDDDKYYNPALKSRLTISKDTSKNHVFLKIANVDTADTATYYCARITTYYYGMDYWGQGTSVTVSS
VL: DIVLSQSPATLSVTPGDSVSLFCRASQSIGNHLHWYQQESHASPRLLIKYASQSISGIPSRFSGSGSGTDFTLSINSVETEDFGMYFCQQSYNWPLTFGAGTKLELK
notes: mouse IgG, kappa light chain; also called clone #16; purified antibody 16
B2: antibody 3 (antibody, V domains shown)
VH: QVTLKESGPGILQPSQTLSLTCSFSGFSLTTFAMGIGWVRQPSGKGLEWLAHIWWDGEKYNNPVLKSRLTISKDTSKNQVFLRIANVDTPDTATYYCARISSIYYIIDNWGQGTSVTVSS
VL: DIVLTQSPATLSVTPGHSVSLSCRASQSISNNLHWYQKKSHESPRLLIKYVSQSISGIPSRFSGSGSGTDFTLSINSVETEDFGMYFCQQSYNWPLTFGAGTKLELK
notes: mouse IgG, kappa light chain; also called clone #3; purified antibody 3
B3: antibody 5 (antibody, V domains shown)
VH: QVTLKESGPGILQPSQTLSLTCSFSGFSLSTFGMGVGWIRQPSGKGLEWLAHIWWDDEKYYNSALKSRLTISKATSKNQAFLKIANVDTADTATYYCARISNYGSNYWYFNVWGTGTTVTVSS
VL: QVVLTQSPALMSASPGEKVTMTCSAGSSVSCMYWYQQKPGSSPRVLIYDTSNLASGVPARFTGSGSGTSYSLTISRMEAEDAASYYCQQWNSYPLTFGAGTKLELK
notes: mouse IgG, kappa light chain; also called clone #5; purified antibody 5
B4: antibody 44 (antibody, V domains shown)
VH: QVTLKESGPGILQPSQTLSLTCSFSGFSLSTFGMGVGWIRQPSEKGLEWLAHIWWDDDKYYNPALKSRLTISKDTSKNQIFLKITNVDTAETATYYCSRIGNYGSNYWYFDVWGTGTTVTVSS
VL: QIVLTQSPAVMSASPGEKVTMTCTASSSVYYMYWYQQTPGSSPRLLIYDTSNLASGVPVRFSGSGSGTSYSLTISRMEAEDAATYYCQQWNTYPLTFGAGTKLELK
notes: mouse IgG, kappa light chain; also called clone #44; purified antibody 44
B5: antibody 43 (antibody, V domains shown)
VH: QVALKESGPGILQPSQTLSLTCSFSGFSLSTFGMGVGWIRQSSGKGLEWLANIWWDDDKYYNPALKSRLTISKDASKNQAFLKIANVDTADTATYYCARIGNYGSNYWYFDVWGTGTTVTVSS
VL: QIVLTQSPAIMSASPGERVTMTCSANSRISYMYWYQQKPGSSPRLLIYDTSNLASGVPVRFSGSGSGTSYSLTISRMEAEDAATYNCQQWSSYPLTFGAGTKLELK
notes: mouse IgG, kappa light chain; also called clone #43; purified antibody 43
B6: antibody 42 (antibody, V domains shown)
VH: QVTLKESGPGILQPSQTLSLTCSLSGFSLSTFGRGVGWIRQPSGKGLEWLAHIWWDDEKYYNPALKSRLTISKDTSKNQVFLRIANVDTADTATYYCARIQNYGSNYWYFDVWGTGTTVTVSS
VL: LIVLTQSPAIMSASPGEKVTMTCGATSRISYMFWYQQKPGSSPRVLIYDTSNLASGVPVRFSGSGSGTSYSLTISRVEAEDVATYYCQQWNSYPLTFGAGTKLELK
notes: mouse IgG, kappa light chain; also called clone #42; purified antibody 42
B7: antibody 22 (antibody, V domains shown)
VH: QVTLKESGPGILQPSQTLSLTCSFSGFSLSTFGMGVGWIRQPSGKGLEWLAHIWWDDEKYYNSALKSRLTISKATSKNQVFLKIANVDTADTATYYCARISNYGSNYWYFNVWGTGTTVTVSS
VL: QVVLTQSPALMSASPGEKVTMTCSAGSSVSYMYWYQQKPGSSPRVLIYDTSNLASGVPARFTGSGSGTSYSLTISRMEAEDAATYYCQQWNSYPLTFGAGTKLELK
notes: mouse IgG, kappa light chain; also called clone #22; purified antibody 22
B8: antibody 34 (antibody, V domains shown)
VH: QVTLKESGPGILQPSQTLSLTCSFSGFSLSTFSLGVGWIRQSSGKGLEWLAHIWWDDEKYYNPALKSRLTISKDTSKNQVFLKIANVDAADTATYYCARAYYSKSYYALDYWGQGTSVTVSS
VL: DIQMTQSPSSLSASLGERVSLTCRASQEISGYLSWLQQKPDGTIKRLIYAASTLDSGVPKRFSGSRSGSDYSLAISSLESEDFADYYCLQYANFPFTFGSGTKLEIK
notes: mouse IgG, kappa light chain; also called clone #34; purified antibody 34

Target: T1, hiR2-FL-D535-T7 (deletion of D535) (human, UniProt Q6PJF5 1-856)
T1 construct: single amino acid deletion
T1 sequence: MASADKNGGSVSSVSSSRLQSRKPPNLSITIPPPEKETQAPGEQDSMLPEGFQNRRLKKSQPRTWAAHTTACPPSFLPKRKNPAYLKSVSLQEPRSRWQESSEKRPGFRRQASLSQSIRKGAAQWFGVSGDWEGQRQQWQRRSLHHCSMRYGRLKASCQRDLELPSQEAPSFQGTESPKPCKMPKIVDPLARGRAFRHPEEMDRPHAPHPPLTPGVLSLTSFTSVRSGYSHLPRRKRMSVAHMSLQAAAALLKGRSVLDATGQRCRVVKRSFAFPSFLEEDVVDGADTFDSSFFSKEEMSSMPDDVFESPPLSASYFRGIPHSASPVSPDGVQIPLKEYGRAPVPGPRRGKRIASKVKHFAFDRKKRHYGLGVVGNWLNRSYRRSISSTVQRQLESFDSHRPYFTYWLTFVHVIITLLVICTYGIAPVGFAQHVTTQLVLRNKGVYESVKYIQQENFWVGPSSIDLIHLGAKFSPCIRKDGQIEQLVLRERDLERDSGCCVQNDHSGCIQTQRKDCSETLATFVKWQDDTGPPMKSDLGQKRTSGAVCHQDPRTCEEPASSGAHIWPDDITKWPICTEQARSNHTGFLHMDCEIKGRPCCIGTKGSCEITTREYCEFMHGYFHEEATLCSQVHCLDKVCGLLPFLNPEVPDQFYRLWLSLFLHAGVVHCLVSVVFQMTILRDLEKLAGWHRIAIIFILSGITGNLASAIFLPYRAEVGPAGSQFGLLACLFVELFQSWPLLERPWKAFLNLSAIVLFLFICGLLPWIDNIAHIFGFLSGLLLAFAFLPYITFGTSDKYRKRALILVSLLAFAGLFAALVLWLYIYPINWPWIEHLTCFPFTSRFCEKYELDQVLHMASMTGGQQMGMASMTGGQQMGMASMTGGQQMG
Assay: FACS, MEF-DKO cells, 3 µg/ml

Binder	loss of binding vs wild type [%]
B1	≥ 95
B2	≥ 95
B3	≥ 95
B4	≥ 95
B5	≥ 95
B6	≥ 95
B7	≥ 95
B8	≥ 95
